# Laboratory results as given in IntAct's records for PubMed 16278218.
# B1: Heat shock factor protein 1 (Homo sapiens), Q00613 (parent)
# chain: MDLPVGPGAAGPSNVPAFLTKLWTLVSDPDTDALICWSPSGNSFHVFDQGQFAKEVLPKYFKHNNMASFVRQLNMYGFRKVVHIEQGGLVKPERDDTEFQHPCFLRGQEQLLENIKRKVTSVSTLKSEDIKIRQDSVTKLLTDVQLMKGKQECMDSKLLAMKHENEALWREVASLRQKHAQQQKVVNKLIQFLISLVQSNRILGVKRKIPLMLNDSGSAHSMPKYSRQFSLEHVHGSGPYSAPSPAYSSSSLYAPDAVASSGPIISDITELAPASPMASPGGSIDERPLSSSPLVRVKEEPPSPPQSPRVEEASPGRPSSVDTLLSPTALIDSILRESEPAPASVTALTDARGHTDTEGRPPSPPPTSTPEKCLSVACLDKNELSDHLDAMDSNLDNLQTMLSSHGFSVDTSALLDLFSPSVTVPDMSLPDLDSSLASIQELLSPQEPPRPPEAENSSPDSGKQLVHYTAQPLFLLDPGSVDTGSNDLPVLFELGEGSYFSEGDGFAEDPTISLLTGSEPPKAKDPTVS
# Variants of: B1
# Conditions: with mapk2_human MAPKAPK2, P49137
# mapk2_human MAPKAPK2, P49137, sequence (P49137 whole entry, looked up): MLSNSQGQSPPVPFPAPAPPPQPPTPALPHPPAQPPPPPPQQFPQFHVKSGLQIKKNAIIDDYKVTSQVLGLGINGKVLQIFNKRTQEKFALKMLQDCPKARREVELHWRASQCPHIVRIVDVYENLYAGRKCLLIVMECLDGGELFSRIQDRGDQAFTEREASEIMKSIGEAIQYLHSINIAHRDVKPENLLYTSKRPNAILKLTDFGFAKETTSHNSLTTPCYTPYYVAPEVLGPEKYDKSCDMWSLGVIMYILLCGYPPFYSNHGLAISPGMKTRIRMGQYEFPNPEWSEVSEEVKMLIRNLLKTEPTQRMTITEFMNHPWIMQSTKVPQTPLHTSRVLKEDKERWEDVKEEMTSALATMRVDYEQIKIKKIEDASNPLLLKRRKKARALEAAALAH
row,effect of a mutation on the interaction,Variant
1,increasing interaction,MDLPVGPGAAGPSNVPAFLTKLWTLVSDPDTDALICWSPSGNSFHVFDQGQFAKEVLPKYFKHNNMASFVRQLNMYGFRKVVHIEQGGLVKPERDDTEFQHPCFLRGQEQLLENIKRKVTAVSTLKSEDIKIRQDSVTKLLTDVQLMKGKQECMDSKLLAMKHENEALWREVASLRQKHAQQQKVVNKLIQFLISLVQSNRILGVKRKIPLMLNDSGSAHSMPKYSRQFSLEHVHGSGPYSAPSPAYSSSSLYAPDAVASSGPIISDITELAPASPMASPGGSIDERPLSSSPLVRVKEEPPSPPQSPRVEEASPGRPSSVDTLLSPTALIDSILRESEPAPASVTALTDARGHTDTEGRPPSPPPTSTPEKCLSVACLDKNELSDHLDAMDSNLDNLQTMLSSHGFSVDTSALLDLFSPSVTVPDMSLPDLDSSLASIQELLSPQEPPRPPEAENSSPDSGKQLVHYTAQPLFLLDPGSVDTGSNDLPVLFELGEGSYFSEGDGFAEDPTISLLTGSEPPKAKDPTVS [S121A]
2,decreasing interaction,MDLPVGPGAAGPSNVPAFLTKLWTLVSDPDTDALICWSPSGNSFHVFDQGQFAKEVLPKYFKHNNMASFVRQLNMYGFRKVVHIEQGGLVKPERDDTEFQHPCFLRGQEQLLENIKRKVTDVSTLKSEDIKIRQDSVTKLLTDVQLMKGKQECMDSKLLAMKHENEALWREVASLRQKHAQQQKVVNKLIQFLISLVQSNRILGVKRKIPLMLNDSGSAHSMPKYSRQFSLEHVHGSGPYSAPSPAYSSSSLYAPDAVASSGPIISDITELAPASPMASPGGSIDERPLSSSPLVRVKEEPPSPPQSPRVEEASPGRPSSVDTLLSPTALIDSILRESEPAPASVTALTDARGHTDTEGRPPSPPPTSTPEKCLSVACLDKNELSDHLDAMDSNLDNLQTMLSSHGFSVDTSALLDLFSPSVTVPDMSLPDLDSSLASIQELLSPQEPPRPPEAENSSPDSGKQLVHYTAQPLFLLDPGSVDTGSNDLPVLFELGEGSYFSEGDGFAEDPTISLLTGSEPPKAKDPTVS [S121D]
